Assay results as given in article doi:10.1101/2025.03.13.643145 (bioRxiv, 2025).
Positions of bridges follow the written chain, without caps; N, C: chain ends. No end group written: not given here.

Experiments:
Experiment in all cases: ELISA
[1] = target: T1, CD9 EC2 domain (extracellular-2 domain of tetraspanin CD9, residues 113-192) (UniProt P21926 113-192)
T1 sequence: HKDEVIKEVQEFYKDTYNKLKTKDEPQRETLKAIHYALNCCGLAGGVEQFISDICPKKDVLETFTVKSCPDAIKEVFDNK

[2] = target: T2, CD81 EC2 domain (extracellular-2 domain of tetraspanin CD81, residues 113-201) (UniProt P60033 113-201)
T2 sequence: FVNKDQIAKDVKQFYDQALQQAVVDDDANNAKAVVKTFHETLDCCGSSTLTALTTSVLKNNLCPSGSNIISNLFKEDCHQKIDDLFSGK

[3] = target: T3, CD151 EC2 domain (extracellular-2 domain of tetraspanin CD151, residues 113-221) (UniProt P48509 113-221)
T3 sequence: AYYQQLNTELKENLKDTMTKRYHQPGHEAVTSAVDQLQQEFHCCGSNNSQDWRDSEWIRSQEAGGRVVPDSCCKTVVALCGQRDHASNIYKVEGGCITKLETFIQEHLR

Measured: binding result

B1: disulfide-linked cyclic site 2 peptide of integrin β3 (GST fusion protein) (peptide)
peptide: CRLAGIVQPNDGQSHVGSDNHYSASTTMC
modifications: disulfide 1-29; also: GST fusion protein
binds: all assays above
